Laboratory results published in publication PMC13234300, “De novo and scaffold-based design of GDF15 binders for cancer cachexia diagnostics and therapeutics” (Experimental & Molecular Medicine, 2026).
Values belong to the molecule of their own block, whether it stands above or below them.

Assays:
[1] = target: recombinant mature human GDF15 dimer, N-glyco-engineered variant (R198N and G200T), Twin-Strep tagged (human) (UniProt Q99988); test: SPR
[2] = target: T1, recombinant mature human GDF15 dimer, N-glyco-engineered variant (R198N and G200T), Twin-Strep tagged (human, UniProt Q99988 198-308, R198N | G200T); test: SPR
T1 sequence: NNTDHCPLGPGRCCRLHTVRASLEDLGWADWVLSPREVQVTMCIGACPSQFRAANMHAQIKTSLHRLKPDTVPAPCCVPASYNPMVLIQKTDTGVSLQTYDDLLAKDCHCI

[3] = target: T2, recombinant mature human GDF15 dimer, N-glyco-engineered variant (R198N and G200T), Twin-Strep tagged (human, UniProt Q99988 198-308, R198N | G200T); test: SPR; Biacore T200; GDF15 dimer immobilised on CM5 chip by amine coupling; HBS-EP+; analyte 5-50 nM in the figure; 1:1 binding model; apparent (avidity of the Fc dimer); conditions: both partners purified
T2 construct: mature human GDF15, residues 198–308, N-glyco-engineered variant (R198N and G200T); no cleavage step is described (eluted with desthiobiotin, then SEC); also called Twin-Strep-GDF15 dimer; growth differentiation factor-15; source: Expi293F, transfected, purified from supernatant (Strep-Tactin-XT, SEC)
T2 sequence (looked up): T1 sequence

[4] = target: T2, recombinant mature human GDF15 dimer, …; test: SPR; Biacore T200; GDF15 dimer immobilised on CM5 chip by amine coupling (10 mM sodium acetate, pH 5.5); HBS-EP+ (0.01 M HEPES pH 7.4, 0.15 M NaCl, 3 mM EDTA, 0.05% P20); analytes 5-100 nM, 300 s association, 300 s dissociation, 30 μl/min; two-state reaction model; conditions: both partners purified

- Kd [1]: 80.2 pM
- koff [1]: 2.24e-05 s⁻¹
Molecule: ponsegromab

- koff [2]: 7.16e-05 s⁻¹
- Kd [3]: 81 pM
B1: SGA2-4-Fc (Fc-fused SGA2-4 binder, homodimeric decoy receptor) (Fc fusion)
chain: VTVFEALDAIIADPQSNAALAAHLKAVAALPADATKAQVDAIYDAFLAQLPAEVRAKVLAAKPDPTNPDEIQLYNQLRGYDKL
modifications: Homodimer through a C-terminal human IgG Fc (isotype and limits not given). The Fc, thrombin site and 6xHis tag are left out; the Fc only provides bivalency/avidity. Expressed in mammalian cells.

- Kd [4]: 90400 pM
B2: human GFRAL D2 domain (residues 115–217) (domain or fragment, UniProt Q6UXV0 115-217, looked up)
chain: WNLTTRSHHGFKGMWSCLEVAEACVGDVVCNAQLASYLKACSANGNPCDLKQCQAAIRFFYQNIPFNIAQMLAFCDCAQSDIPCQQSKEALHSKTCAVNMVPP
notes: human GFRAL (glial cell-derived neurotrophic factor family receptor alpha-like), D2 domain, residues 115–217; the expressed construct as residues 115–217; also called hGFRAL D2; initial scaffold; source: Expi293F, transfected, purified (protein A, on-resin thrombin cleavage, SEC); not shown: Fc, C-terminal, cleaved
